One molecule from paper PMC12859505 can be followed below.

In assay [1] the target is HA- and RLuc8-tagged CXCR5 (HA-CXCR5-Rluc8), CXCL13-stimulated, in cells that express GRKs (GRK-phosphorylated) (UniProt P32302).
Assay [2] concerns the target HA- and RLuc8-tagged CXCR5 (HA-CXCR5-Rluc8) in ΔQ-GRK HEK293 cells (GRK2/3/5/6 deleted; not phosphorylated by GRKs) (UniProt P32302).

B1: CXCL13 (ligand)
chain: VLEVYYTSLRCRCVQESSVFIPRRFIDRIQILPRGNGCPRKEIIVWKKNKSIVCVDPQAEWIQRMMEVLRKRSSSTLPVPVFKRKIP
Regarding B1, the potency (EC50) of CXCL13 (1-100 nM) for G protein activation by FLAG-CXCR5 in WT HEK293 cells: loss of BRET between Gαi1-Rluc8 and Gβ3γ9-GFP2 (TRUEPATH), area under the curve in assay [1] amounted to 1 nM. In assay [2], this molecule returned a potency (EC50) of CXCL13 (1-100 nM) for G protein activation by FLAG-CXCR5 in ΔQ-GRK HEK293 cells: loss of BRET between Gαi1-Rluc8 and Gβ3γ9-GFP2 (TRUEPATH), area under the curve of 0.85 nM.
